Read-outs that look alike come from different tables or passages of the source.
Tests used:
4H796-bN = biological target: T1, 4H796-bN; test: two-hybrid library CCNG1;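 further: natural log of median RNA to DNA barcode read ratio; higher means stronger binding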
T1 chain: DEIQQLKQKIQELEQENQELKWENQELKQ

4H932-bN = biological target: T2, 4H932-bN; test: two-hybrid library CCNG1;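 further: natural log of median RNA to DNA barcode read ratio; higher means stronger binding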
T2 chain: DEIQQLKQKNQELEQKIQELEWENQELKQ

4H949-bN = biological target: T3, 4H949-bN; test: two-hybrid library CCNG1;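 further: natural log of median RNA to DNA barcode read ratio; higher means stronger binding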
T3 chain: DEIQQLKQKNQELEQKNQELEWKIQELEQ

4H730-bN = biological target: T4, 4H730-bN; test: two-hybrid library CCNG1;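 further: natural log of median RNA to DNA barcode read ratio; higher means stronger binding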
T4 chain: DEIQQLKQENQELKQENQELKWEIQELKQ

4H3922-AA = biological target: T5, 4H3922-AA; test: two-hybrid library CCmax
T5 chain: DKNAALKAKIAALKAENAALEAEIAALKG

4H4033-AA = biological target: T6, 4H4033-AA; test: two-hybrid library CCmax
T6 chain: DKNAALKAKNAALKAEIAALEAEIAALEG

4H481-AA = biological target: T7, 4H481-AA; test: two-hybrid library CCmax; conditions: mean of both orientations
T7 chain: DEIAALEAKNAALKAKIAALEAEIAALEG

4H55-AA = biological target: T8, 4H55-AA; test: two-hybrid library CCmax; conditions: mean of both orientations
T8 chain: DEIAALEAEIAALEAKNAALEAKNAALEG

4H662-AA = biological target: T9, 4H662-AA; test: two-hybrid library CCmax; conditions: mean of both orientations
T9 chain: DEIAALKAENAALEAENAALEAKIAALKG

4H967-bH = biological target: T10, 4H967-bH; test: two-hybrid library CCNG1
T10 chain: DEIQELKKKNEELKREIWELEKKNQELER

4H72-bH = biological target: T11, 4H72-bH; test: two-hybrid library CCNG1
T11 chain: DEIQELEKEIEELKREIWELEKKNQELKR

4H908-bH = biological target: T12, 4H908-bH; test: two-hybrid library CCNG1
T12 chain: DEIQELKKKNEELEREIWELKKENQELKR

4H717-bH = biological target: T13, 4H717-bH; test: two-hybrid library CCNG1
T13 chain: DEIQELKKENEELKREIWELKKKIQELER

4H918-bH = biological target: T14, 4H918-bH; test: two-hybrid library CCNG1
T14 chain: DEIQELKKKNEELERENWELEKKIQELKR

4H883-bH = biological target: T15, 4H883-bH; test: two-hybrid library CCNG1
T15 chain: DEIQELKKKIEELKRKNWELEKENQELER

4H568-bH = biological target: T16, 4H568-bH; test: two-hybrid library CCNG1
T16 chain: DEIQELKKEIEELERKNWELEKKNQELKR

4H754-bH = biological target: T17, 4H754-bH; test: two-hybrid library CCNG1
T17 chain: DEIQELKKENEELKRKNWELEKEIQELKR

4H953-bH = biological target: T18, 4H953-bH; test: two-hybrid library CCNG1
T18 chain: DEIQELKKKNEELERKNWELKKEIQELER

4H607-bH = biological target: T19, 4H607-bH; test: two-hybrid library CCNG1
T19 chain: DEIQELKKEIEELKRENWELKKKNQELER

4H687-bH = biological target: T20, 4H687-bH; test: two-hybrid library CCNG1
T20 chain: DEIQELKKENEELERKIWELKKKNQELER

4H454-bH = biological target: T21, 4H454-bH; test: two-hybrid library CCNG1
T21 chain: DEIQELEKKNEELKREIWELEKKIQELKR

4H797-bH = biological target: T22, 4H797-bH; test: two-hybrid library CCNG1
T22 chain: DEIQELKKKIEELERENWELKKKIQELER

P9 = biological target: T23, P9; test: two-hybrid library CC1
T23 chain: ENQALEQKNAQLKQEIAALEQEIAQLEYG

4H497-AA = biological target: T24, 4H497-AA; test: two-hybrid library CCmax; conditions: mean of both orientations
T24 chain: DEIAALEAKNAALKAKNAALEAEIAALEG

4H428-AA = biological target: T25, 4H428-AA; test: two-hybrid library CCmax; conditions: mean of both orientations
T25 chain: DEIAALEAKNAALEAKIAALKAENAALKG

4H3920-AA = biological target: T26, 4H3920-AA; test: two-hybrid library CCmax; conditions: mean of both orientations
T26 chain: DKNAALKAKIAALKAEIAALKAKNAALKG

4H3446-AA = biological target: T27, 4H3446-AA; test: two-hybrid library CCmax; conditions: mean of both orientations
T27 chain: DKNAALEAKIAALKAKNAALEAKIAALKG

4H675-AA = biological target: T28, 4H675-AA; test: two-hybrid library CCmax
T28 chain: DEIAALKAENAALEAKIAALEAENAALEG

4H3939-AA = biological target: T29, 4H3939-AA; test: two-hybrid library CCmax; conditions: mean of both orientations
T29 chain: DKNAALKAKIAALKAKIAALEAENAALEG

4H3709-AA = biological target: T30, 4H3709-AA; test: two-hybrid library CCmax; conditions: mean of both orientations
T30 chain: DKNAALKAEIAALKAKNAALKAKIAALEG

4H3417-AA = biological target: T31, 4H3417-AA; test: two-hybrid library CCmax; conditions: mean of both orientations
T31 chain: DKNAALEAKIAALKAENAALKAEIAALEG

4H3666-AA = biological target: T32, 4H3666-AA; test: two-hybrid library CCmax; conditions: mean of both orientations
T32 chain: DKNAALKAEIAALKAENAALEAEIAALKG

4H971-AA = biological target: T33, 4H971-AA; test: two-hybrid library CCmax; conditions: mean of both orientations
T33 chain: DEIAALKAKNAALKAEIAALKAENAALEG

4H478-AA = biological target: T34, 4H478-AA; test: two-hybrid library CCmax; conditions: mean of both orientations
T34 chain: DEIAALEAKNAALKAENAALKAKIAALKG

4H3121-AA = biological target: T35, 4H3121-AA; test: two-hybrid library CCmax
T35 chain: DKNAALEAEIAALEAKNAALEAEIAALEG

4H391-AA = biological target: T36, 4H391-AA; test: two-hybrid library CCmax; conditions: mean of both orientations
T36 chain: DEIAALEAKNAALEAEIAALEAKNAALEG

4H3591-AA = biological target: T37, 4H3591-AA; test: two-hybrid library CCmax; conditions: mean of both orientations
T37 chain: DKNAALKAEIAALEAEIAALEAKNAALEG

4H3628-AA = biological target: T38, 4H3628-AA; test: two-hybrid library CCmax; conditions: mean of both orientations
T38 chain: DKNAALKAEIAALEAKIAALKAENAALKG

4H656-AA = biological target: T39, 4H656-AA; test: two-hybrid library CCmax; conditions: mean of both orientations
T39 chain: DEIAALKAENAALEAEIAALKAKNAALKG

4H906-bN = biological target: T40, 4H906-bN; test: two-hybrid library CCNG1
T40 chain: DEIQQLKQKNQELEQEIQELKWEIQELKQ

4H850-bN = biological target: T41, 4H850-bN; test: two-hybrid library CCNG1
T41 chain: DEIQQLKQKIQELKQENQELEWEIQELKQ

4H619-bN = biological target: T42, 4H619-bN; test: two-hybrid library CCNG1
T42 chain: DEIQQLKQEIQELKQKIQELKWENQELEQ

4H949-bH = biological target: T43, 4H949-bH; test: two-hybrid library CCNG1
T43 chain: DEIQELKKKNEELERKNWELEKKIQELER

4H796-bH = biological target: T44, 4H796-bH; test: two-hybrid library CCNG1
T44 chain: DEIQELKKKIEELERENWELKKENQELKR

4H932-bH = biological target: T45, 4H932-bH; test: two-hybrid library CCNG1
T45 chain: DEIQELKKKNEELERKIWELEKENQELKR

4H_GCN4 = test: two-hybrid library CCmax
4H_GCN4, sequence (chain, as listed by the source): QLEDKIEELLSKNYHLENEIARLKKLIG

4H_APH = biological target: T46, 4H_APH; test: two-hybrid library CCmax; conditions: mean of both orientations
T46 chain: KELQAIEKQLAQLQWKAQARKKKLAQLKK

GCN2_T = test: two-hybrid library CCmax; conditions: mean of both orientations
4H895-AA = biological target: T47, 4H895-AA; test: two-hybrid library CCmax
T47 chain: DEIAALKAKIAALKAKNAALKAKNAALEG

4H_BCR = biological target: T48, 4H_BCR; test: two-hybrid library CCmax; conditions: mean of both orientations
T48 chain: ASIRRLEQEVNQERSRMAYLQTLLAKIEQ

4H730-bH = biological target: T49, 4H730-bH; test: two-hybrid library CCNG1
T49 chain: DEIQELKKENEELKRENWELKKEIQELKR

4H3102-AA = biological target: T50, 4H3102-AA; test: two-hybrid library CCmax
T50 chain: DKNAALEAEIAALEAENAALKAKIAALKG

Binder: DEIQQLKQENQELKQENQELKWEIQELKQ [4H730-bN]
- interaction score (4H796-bN): -1.29
- interaction score (4H932-bN): -0.353
- interaction score (4H949-bN): -0.718
- interaction score (4H730-bN): 1.55

Binder: DKNAALKAKIAALKAENAALEAEIAALKG [4H3922-AA]
- interaction score (4H3922-AA): -0.436
- interaction score (4H4033-AA; mean of both orientations): -0.495
- interaction score (4H481-AA): 1.69
- interaction score (4H55-AA): -1.32
- interaction score (4H662-AA): -1.16

Binder: DEIQELEKKNEELKREIWELEKKIQELKR [4H454-bH]
- interaction score (4H967-bH): 0.69
- interaction score (4H72-bH): 0.203
- interaction score (4H908-bH): -0.536
- interaction score (4H717-bH): 0.664
- interaction score (4H918-bH): -1.05
- interaction score (4H883-bH): -1.26
- interaction score (4H568-bH): 0.197
- interaction score (4H754-bH): 0.236
- interaction score (4H953-bH): 1.26
- interaction score (4H607-bH): -1.61
- interaction score (4H687-bH): 1.81
- interaction score (4H454-bH): 1.6
- interaction score (4H797-bH): -0.829

Binder: DEIQQLKQKIQELEQENQELKWENQELKQ [4H796-bN]
- interaction score (4H796-bN): 1.8
- interaction score (4H932-bN): 0.298
- interaction score (4H949-bN): -0.619

Binder: ENQALEQKNAQLKQEIAALEQEIAQLEYG [P9]
- interaction score (P9): -2.32

Binder: DKNAALEAEIAALEAKNAALEAEIAALEG [4H3121-AA]
- interaction score (4H497-AA): -1.74
- interaction score (4H428-AA): -0.865
- interaction score (4H3920-AA): -1.06
- interaction score (4H3446-AA): 1.8
- interaction score (4H675-AA): -2.08
- interaction score (4H3939-AA): -1.9
- interaction score (4H3709-AA): -0.104
- interaction score (4H3417-AA): -1.39
- interaction score (4H3666-AA): -0.746
- interaction score (4H971-AA): -1.39
- interaction score (4H478-AA): -0.966
- interaction score (4H3121-AA): -1.24
- interaction score (4H391-AA): -1.89
- interaction score (4H3591-AA): -1.55
- interaction score (4H3628-AA): -1.32
- interaction score (4H656-AA): -1.6

Binder: DEIQQLKQEIQELKQKIQELKWENQELEQ [4H619-bN]
- interaction score (4H906-bN): -0.494
- interaction score (4H850-bN): -0.223
- interaction score (4H619-bN): 1.24

Binder: DEIQELKKKIEELERENWELKKENQELKR [4H796-bH]
- interaction score (4H949-bH): -0.00426
- interaction score (4H796-bH): 1.25
- interaction score (4H932-bH): -0.89

Binder: DEIAALKAKIAALKAKNAALKAKNAALEG [4H895-AA]
- interaction score (4H_GCN4): -1.86
- interaction score (4H_APH): -1.22
- interaction score (GCN2_T): -1.25
- interaction score (4H895-AA): -1.19
- interaction score (4H_BCR): -2.06

Binder: DKNAALKAKNAALKAEIAALEAEIAALEG [4H4033-AA]
- interaction score (4H4033-AA): -1.66
- interaction score (4H481-AA): -1.15
- interaction score (4H55-AA): -1.39
- interaction score (4H662-AA): 1.17

Binder: DEIQELKKENEELKRENWELKKEIQELKR [4H730-bH]
- interaction score (4H949-bH): 0.0896
- interaction score (4H796-bH): -0.301
- interaction score (4H932-bH): -1.05
- interaction score (4H730-bH): 1.5

Binder: DKNAALEAEIAALEAENAALKAKIAALKG [4H3102-AA]
- interaction score (4H497-AA): -1.18
- interaction score (4H428-AA): 0.651
- interaction score (4H3920-AA): -1.16
- interaction score (4H3446-AA): 0.0866
- interaction score (4H675-AA; mean of both orientations): -0.00286
- interaction score (4H3939-AA): -1.39
- interaction score (4H3709-AA): 1.43
- interaction score (4H3102-AA): 1.69
- interaction score (4H3417-AA): 2.29
- interaction score (4H3666-AA): 1.73
- interaction score (4H971-AA): -0.422
- interaction score (4H478-AA): 1.81
- interaction score (4H3121-AA; mean of both orientations): -0.0964
- interaction score (4H391-AA): -0.9
- interaction score (4H3591-AA): -1.16
- interaction score (4H3628-AA): -0.57
- interaction score (4H656-AA): 0.534
